This is an account of results in the RNAGym collection of RNA variant scans (doi:10.7554/elife.80360).

To fix the notation:
B1: Twister Ribozyme (parent)
chain: AACACUGCCAAUGCCGGUCCCAAGCCCGGAUAAAAGUGGAGGGGGCGG

The variants in this data set derive from B1. Kind of data set: self-cleavage, relative activity (ratio to wild type); higher = more cleavage; co-transcriptional.
In the case of AACACUGCCAAUGCCGGUCCCAAGCCCGGAUAAAAGUUGAGGCGGCGG [G38U G43C], the self-cleavage turned out to be 0.126.
With AACACUGCCAAUGCCGGUCCCACGCCCGGAUAAAAGUGGAGGGGGCGU [A23C G48U], the self-cleavage is 0.181.
The same measure for AACACUGCCAAUGCCGGUCCCCAGCCCGGAUAAAAGUGGAGGGGGCGU [A22C G48U]: 1.03; for AACACUGCCAAUGCCGGUUCCAAGCCCGGAUAAAAGUAGAGGGGGCGG [C19U G38A]: 0.855.
Take AACACUGCCAAUGCCGGUCCCAAACCGGGAUAAAAGUGGAGGGGGCGG [G24A C27G]: the self-cleavage is 0.105.
For the variant AACACUGCCCAUGCCGGUCCCAAGCCCGGAUAAAAGUGGAGGGGGUGG [A10C C46U], the self-cleavage amounted to 0.839.
The same measure for AACACUGCCAAUGCCGGUCCCAAGCUCGGAUAAAAGUGGAGGGUGCGG [C26U G44U]: 0.249; for AACACUGCCAAUGCCGGUCCCAAGCCCGUGUAAAAGUGGAGGGGGCGG [G29U A30G]: 1; for AACACUGCCAAUGCCGGUCCCAAGCCCGGAUAAAGGUGGAGGGGGCAG [A35G G47A]: 0.706.
Regarding AACACUGCCAAUGCCAGUCCCAAGCCCGGAUAAAAGUGGAGGGGUCGG [G16A G45U], the self-cleavage was 0.858.
Turning to AAUACUGCUAAUGCCGGUCCCAAGCCCGGAUAAAAGUGGAGGGGGCGG [C3U C9U], the self-cleavage amounted to 0.253.
The same measure for AACACUGCCAAUGCCGGCCCCAGGCCCGGAUAAAAGUGGAGGGGGCGG [U18C A23G]: 0.157; for AACACUGGCAAUGCCGGUCCCAAGCCCGGAUAAAAGUGGAGGGGGCGA [C8G G48A]: 0.227; for AACACUGCCAAUGCCGGUCUCUAGCCCGGAUAAAAGUGGAGGGGGCGG [C20U A22U]: 0.543.
To AACACUGACAAUGCCGGACCCAAGCCCGGAUAAAAGUGGAGGGGGCGG [C8A U18A] belongs 0.111; to AACGCUGCCAAUGCCCGUCCCAAGCCCGGAUAAAAGUGGAGGGGGCGG [A4G G16C], 0.243; to AACACUGCCAAUCCCGGUCCCAUGCCCGGAUAAAAGUGGAGGGGGCGG [G13C A23U], 0.0457.
As for AACACUGCCAAUGCCGGUCCCAAACCCGGCUAAAAGUGGAGGGGGCGG [G24A A30C], the self-cleavage stood at 0.0875.
To AACACUGCCAAUGCCGGUCCCAAGCCGGGAUAGAAGUGGAGGGGGCGG [C27G A33G] belongs 0.139.
In the case of AACACUGCCAAUGCCGGCACCAAGCCCGGAUAAAAGUGGAGGGGGCGG [U18C C19A], the self-cleavage stood at 0.0644.
To AACACUGCCAAUGCCGCUCCCAAGCCCGGAUAAAAGUGGAGGGGUCGG [G17C G45U] belongs 0.107; to AAUACUGCCAAUGCCGGUCCCAAGCCCGGAUAAAAGUGGAGGGGGCGA [C3U G48A], 0.381; to AACGGUGCCAAUGCCGGUCCCAAGCCCGGAUAAAAGUGGAGGGGGCGG [A4G C5G], 0.274.
Regarding AACGUUGCCAAUGCCGGUCCCAAGCCCGGAUAAAAGUGGAGGGGGCGG [A4G C5U], the self-cleavage was found to be 0.855.
To AACACUGCCAAUGACGGUCCCAAGCCCGGAUAAAAGUGGAGAGGGCGG [C14A G42A] belongs 0.417; to AAGACUGCCAAUGCCGGUCCCAAGCCCGGAAAAAAGUGGAGGGGGCGG [C3G U31A], 0.57; to CACAUUGCCAAUGCCGGUCCCAAGCCCGGAUAAAAGUGGAGGGGGCGG [A1C C5U], 0.277.
To AGCACUGCUAAUGCCGGUCCCAAGCCCGGAUAAAAGUGGAGGGGGCGG [A2G C9U] belongs 0.0996; to AACACUGCCAAUGCCGGUCCCAAGCCCAGAUAAAAGCGGAGGGGGCGG [G28A U37C], 0.391.
Take AACACUGCCAACGCCGGUCCCAUGCCCGGAUAAAAGUGGAGGGGGCGG [U12C A23U]: the self-cleavage worked out at 0.554.
To AACACUGCCAAUGCCGGUCGCGAGCCCGGAUAAAAGUGGAGGGGGCGG [C20G A22G] belongs 0.0602; to AACAAUACCAAUGCCGGUCCCAAGCCCGGAUAAAAGUGGAGGGGGCGG [C5A G7A], 0.0771; to UACACUGCCAAUGCCGGUCCCAAGCCCGGAUAAAAGUUGAGGGGGCGG [A1U G38U], 0.0843.
To AACACUGCCAAUGCCGGUCCCAAGCGCGGAUAAAAGUGGAGAGGGCGG [C26G G42A] belongs 0.103.
To AACACUGCCAAUGCCGGUCCCAAGCCCGGAUGAAAGUGGAGGGGGUGG [A32G C46U] belongs 0.933; to AACACUGCCAAUGCCAGUCCCAAGCCAGGAUAAAAGUGGAGGGGGCGG [G16A C27A], 0.858.
For AACACUGCCAAGGCCGGUCCCAAGUCCGGAUAAAAGUGGAGGGGGCGG [U12G C25U], the self-cleavage amounted to 0.675.
Consider AACACUGCCACUGCCGGUCCCAAGCCCGGAUAAACGUGGAGGGGGCGG [A11C A35C], for which the self-cleavage was found to be 0.886.
The same measure for AACACUGCCAAUGCCGUUCCCAAGCCCGGAUAAAAGUGGAGGGGGCGG [G17U]: 0.497; for AACACUGCCAAUGCCGGUCCCAAGCCCGCAUAAAAGUGGAGGGGUCGG [G29C G45U]: 0.362.
Take AACACUGCCAAUGCCGUUCCCAAGCCCGGAUAAAAGUGGAGGGGUCGG [G17U G45U]: the self-cleavage amounted to 0.221.
Consider AACACUGCCAUUGCCGGUCCCAAGCCCGGAUAAAAGUGCAGGGGGCGG [A11U G39C], for which the self-cleavage is 0.149.
As to AACACUGCCAAUGCCGGUCCCAAGCCCGGAUAAAAAUGGAGGGGGUGG [G36A C46U], the self-cleavage is 0.766.
The same measure for AAAACUGCCAAAGCCGGUCCCAAGCCCGGAUAAAAGUGGAGGGGGCGG [C3A U12A]: 0.0973; for AACACUGCAAAUGCCGGUCACAAGCCCGGAUAAAAGUGGAGGGGGCGG [C9A C20A]: 0.0653; for AACACUACCAAUGCCGGUCCCAAGCCCGGAAAAAAGUGGAGGGGGCGG [G7A U31A]: 0.599.
The same measure for AACACUGCCAAUGCCGGUCCCAAGCCCGGAUAAAAGUGGAUGGGGAGG [G41U C46A]: 0.512; for AACACCGCCAAUGCCUGUCCCAAGCCCGGAUAAAAGUGGAGGGGGCGG [U6C G16U]: 0.371.
The same measure for AACACUGCCAAUGCCGGGCCCGAGCCCGGAUAAAAGUGGAGGGGGCGG [U18G A22G]: 0.0592; for AACACUACCAAUGCCGGUCCCAAGCCCGGAUGAAAGUGGAGGGGGCGG [G7A A32G]: 0.323; for AACACUGCUAACGCCGGUCCCAAGCCCGGAUAAAAGUGGAGGGGGCGG [C9U U12C]: 0.501.
As for AACACUGCCAAUGCCGAUCCCAGGCCCGGAUAAAAGUGGAGGGGGCGG [G17A A23G], the self-cleavage came to 0.0743.
Turning to AACAUUGCCAAUGACGGUCCCAAGCCCGGAUAAAAGUGGAGGGGGCGG [C5U C14A], the self-cleavage was 0.673.
With AACACUGCCAAUGCCGGUCCCAAGCCCGGAUAAAAGUGGAAGGGGCGC [G41A G48C], the self-cleavage stood at 0.535.
